According to patent US20250277030A1, “ANTI-NAPI2B ANTIBODIES AND METHODS OF USE” (Zymeworks BC Inc., priority 2022, published 2025):

How the values were obtained:
dsDNA = assay: NS-ELISA non-specific binding, dsDNA; conditions: mAb at 100 nM
Experimental: The isoelectric point was measured by capillary isoelectric focusing (cIEF), the propensity for self-aggregation was measured by Affinity-capture self-interaction nanoparticle spectroscopy (AC-SINS) and non-specific binding was measured by NS-ELISA, as described below.
NS-ELISA was used to measure the propensity of the antibodies to bind to a range of biomolecules to emulate the undesirable non-specific interactions to biological matrices in vivo as described below.
NS-ELISA was carried out in Corning®96-well EIA/RIA Easy Wash™ Clear Flat Bottom Polystyrene High Bind Microplate coated overnight at 4° C. with 50 μL of Heparin (Sigma, H3149) diluted with 50 mM sodium carbonate pH 9.6 to a final concentration of 250 μg/mL. The plate was incubated for 2 days at room temperature, wells that were coated with heparin were not covered to allow air dry. […] Reactions were stopped after approximately 10 minutes by adding 100 μL of 1 M HCl to each well, and absorbance was read at 450 nm. Binding scores were calculated as the ratio of the ELISA signal of the antibody (antibody-treated) to the signal of a well containing buffer instead of the primary antibody (untreated). The cutoffs considered for each binding molecule (ssDNA, KLH, insulin, dsDNA and heparin) were internally calculated, based on the average of Zymeworks Inc. produced antibodies and antibodies benchmarks published in the literature.

[1] = Stability (fragmentation) in mouse plasma at 37° C. by LC-MS; assay type: in vitro ADME; conditions: for apparent % desired proteoforms: Mouse Plasma 37° C., 0.5 mg/ml
Experimental: Samples were removed after 0, 7 and 14 days and stored at −80° C. until characterization. For characterization, samples were thawed at room temperature and 50 μg were incubated with 5 μg of recombinant EndoS endoglycosidase for one hour at room temperature. An immunoprecipitation slurry was generated by a 45 min incubation of 95 μL/sample of magnetic Sepharose streptavidin-coated beads with 15 μg/sample of biotinylated goat anti-Human IgG Fc capture antibody, followed by 4 washes with PBS pH 7.4 with the aid of a DynaMag™-2 magnet (Invitrogen™).
After deglycosylation, plasma-incubated samples were incubated with 95 μL of the immunoprecipitation slurry for 1.5 hrs at room temperature. Then, the slurry underwent 6 washes with PBS pH 7.4 and 2 washes with LC-MS-grade water with the aid of a DynaMag™-2 magnet (Invitrogen™). A final wash with PBS pH 7.4 was performed before elution. Protein was eluted by incubating beads with 35 μL of LC-MS grade water with 20% acetonitrile and 0.1% formic acid for one hour at room temperature. PBS samples were not immunoprecipitated.
5 μL of the eluted sample were transferred to glass inserts in LC-MS vials. For LC-MS analysis, 1 μL of sample were injected into a Waters™ BioSuite Phenyl Column, 1000 Å, 10 μm, 4.6 mm×75 mm using a Waters™ ACQUITY™ UPLC I-Class HPLC system coupled to a Waters™ Synapt™ G2-Si HDMS with a column temperature of 70 C and a flow rate of 0.3 mL/min. Mobile phases consisted of A: LC-MS grade water with 0.1% v/v formic acid, 0.025 v/v trifluoroacetic acid and 10% v/v isopropyl alcohol in, and B: acetonitrile with 0.1% v/v formic acid and 10% v/v isopropyl alcohol. The column was pre-equilibrated in 10% mobile phase B before injection. Then, a 20 min 10 to 27% mobile phase B gradient was applied, followed by a 2 min 27 to 90% mobile phase B gradient and a column wash of 2 min at 99% mobile phase B.
The column was re-equilibrated to 10% mobile phase B for 2 minutes between runs. ESI was performed in positive mode with 3 kV of capillary voltage, 120 C source temperature, 100 V sampling cone voltage, source offset of 80 V, source gas flow of 0 ml/min, desolvation temperature 500 C, cone gas flow 0 μL/Hr, desolvation gas flow […], nebuliser gas flow 6.5 bar. Data format was continuum with analyser set in sensitivity mode, with a m/z range from 500 to 7000.
Peak integration, MS deconvolution and mass assignments were performed in Protein Metrics Byos® v4.0 using a deconvolution window of 60000-160000 Da with an m/z range of 1000-4000. For all time points, the highest intensity deconvoluted mass was assigned as the reference mass of v29456. […]

NS-ELISA binding score (ratio of signal between antibody-treated and untreated), dsDNA (dsDNA): 1.07
B1: v29456: humanized anti-NaPi2b IgG1/kappa antibody H1L2; VH SEQ ID NO:24, VL SEQ ID NO:29 (antibody, V domains shown)
VH: QVQLVQSGAEVKKPGASVKVSCKASGFTFTSYNVHWVRQAPGQGLEWMGAISPGNGDLSYAQKFQGRVTMTRDTSTSTVYMELSSLRSEDTAVYYCARGRTGMGAVDYWGQGTLVTVSS
VL: DVQMTQSPSSLSASVGDRVTITCRASQDVYSYLNWYQQKPGKAVKLLIYYTSRLQSGVPSRFSGSGSGTDYTLTISSLQPEDFATYYCQQYNIFPWTFGQGTKLEIK
modifications: v29452, v29456, v29460 VH (H1); v29453, v29454, v29455, v29456 VL (L2)
fragmentation in mouse plasma, in words ([1]; 37° C., 7 and 14 days): no evidence of fragmentation | apparent % desired proteoforms ([1]; 0 days): 99.9% | apparent % desired proteoforms ([1]; 7 days): 100.0% | apparent % desired proteoforms ([1]; 14 days): 98.4%
